The source of these data is publication doi:10.1101/411223 (bioRxiv, 2018).

The target of one experiment is T1, Kap114p (Δ347-371) (S. cerevisiae, UniProt P53067 1-1004, Δ347-371).
T1 sequence (looked up): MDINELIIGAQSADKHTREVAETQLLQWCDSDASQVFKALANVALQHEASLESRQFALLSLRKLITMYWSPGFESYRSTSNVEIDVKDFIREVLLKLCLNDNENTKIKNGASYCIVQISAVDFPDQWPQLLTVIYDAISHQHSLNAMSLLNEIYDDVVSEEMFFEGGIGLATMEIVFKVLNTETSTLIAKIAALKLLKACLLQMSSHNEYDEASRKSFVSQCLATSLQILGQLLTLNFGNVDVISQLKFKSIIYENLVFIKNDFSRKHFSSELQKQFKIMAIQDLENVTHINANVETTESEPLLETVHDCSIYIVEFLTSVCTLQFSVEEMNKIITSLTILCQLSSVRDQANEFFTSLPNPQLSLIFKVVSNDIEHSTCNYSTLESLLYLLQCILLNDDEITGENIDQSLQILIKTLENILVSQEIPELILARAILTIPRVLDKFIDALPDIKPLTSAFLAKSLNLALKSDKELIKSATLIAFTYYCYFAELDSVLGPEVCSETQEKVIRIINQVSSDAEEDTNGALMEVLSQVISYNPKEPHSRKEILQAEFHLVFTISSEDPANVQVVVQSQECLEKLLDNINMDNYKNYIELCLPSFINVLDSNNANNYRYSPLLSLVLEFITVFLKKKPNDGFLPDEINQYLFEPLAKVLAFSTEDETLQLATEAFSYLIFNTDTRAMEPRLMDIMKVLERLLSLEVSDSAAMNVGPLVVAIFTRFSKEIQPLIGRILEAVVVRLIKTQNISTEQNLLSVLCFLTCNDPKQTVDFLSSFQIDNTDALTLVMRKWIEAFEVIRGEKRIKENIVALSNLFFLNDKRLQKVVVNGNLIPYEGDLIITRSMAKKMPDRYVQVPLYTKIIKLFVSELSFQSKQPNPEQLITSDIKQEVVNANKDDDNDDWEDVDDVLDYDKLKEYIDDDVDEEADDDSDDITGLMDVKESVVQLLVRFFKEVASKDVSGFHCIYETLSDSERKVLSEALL
Nature of the experiment: pull-down.

For the next experiment, the target named is T2, Kap114p (Δ899-956) (S. cerevisiae, UniProt P53067 1-1004, Δ899-956).
T2 sequence (looked up): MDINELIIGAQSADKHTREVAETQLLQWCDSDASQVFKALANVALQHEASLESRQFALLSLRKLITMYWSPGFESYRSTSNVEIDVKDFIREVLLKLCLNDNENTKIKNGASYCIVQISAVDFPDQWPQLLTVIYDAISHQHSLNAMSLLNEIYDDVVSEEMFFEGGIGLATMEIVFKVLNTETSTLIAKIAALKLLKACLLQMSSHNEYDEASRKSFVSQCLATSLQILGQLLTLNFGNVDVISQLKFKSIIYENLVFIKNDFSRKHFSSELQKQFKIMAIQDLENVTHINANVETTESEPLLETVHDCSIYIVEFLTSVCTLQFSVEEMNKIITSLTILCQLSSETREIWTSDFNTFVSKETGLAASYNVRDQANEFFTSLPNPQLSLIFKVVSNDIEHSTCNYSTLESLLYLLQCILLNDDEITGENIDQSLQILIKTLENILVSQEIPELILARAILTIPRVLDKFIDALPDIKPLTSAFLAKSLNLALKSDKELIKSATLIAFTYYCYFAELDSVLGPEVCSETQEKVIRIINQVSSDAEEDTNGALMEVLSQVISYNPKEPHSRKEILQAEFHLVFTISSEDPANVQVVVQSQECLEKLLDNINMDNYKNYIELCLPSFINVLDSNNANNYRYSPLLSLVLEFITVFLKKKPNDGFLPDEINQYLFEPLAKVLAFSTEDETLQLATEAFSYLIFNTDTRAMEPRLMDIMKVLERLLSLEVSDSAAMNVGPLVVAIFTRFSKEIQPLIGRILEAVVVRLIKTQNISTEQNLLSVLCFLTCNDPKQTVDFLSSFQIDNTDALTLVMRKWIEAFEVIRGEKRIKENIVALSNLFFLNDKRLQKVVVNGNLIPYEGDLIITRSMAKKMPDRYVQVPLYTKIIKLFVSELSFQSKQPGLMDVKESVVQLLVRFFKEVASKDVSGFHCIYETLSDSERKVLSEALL
Nature of the experiment: pull-down.

Experiment [1] addresses His-tagged RanQ69L, P62826. Nature of the experiment: SEC. The following applies: remark: other sources report otherwise.

B1: GST-fused yTBP (61-240) (domain or fragment, S. cerevisiae, UniProt P13393 61-240, looked up)
chain: SGIVPTLQNIVATVTLGCRLDLKTVALHARNAEYNPKRFAAVIMRIREPKTTALIFASGKMVVTGAKSEDDSKLASRKYARIIQKIGFAAKFTDFKIQNIVGSCDVKFPIRLEGLAFSHGTFSSYEPELFPGLIYRMVKPKIVLLIFVSGKIVLTGAKQREEIYQAFEAIYPVLSEFRKM
In the case of B1, the binding result with Kap114p (Δ347-371) and with Kap114p (Δ899-956) was “binds” each time.

B2: Kap114p, P53067 1-1004 (natural protein)
chain: MDINELIIGAQSADKHTREVAETQLLQWCDSDASQVFKALANVALQHEASLESRQFALLSLRKLITMYWSPGFESYRSTSNVEIDVKDFIREVLLKLCLNDNENTKIKNGASYCIVQISAVDFPDQWPQLLTVIYDAISHQHSLNAMSLLNEIYDDVVSEEMFFEGGIGLATMEIVFKVLNTETSTLIAKIAALKLLKACLLQMSSHNEYDEASRKSFVSQCLATSLQILGQLLTLNFGNVDVISQLKFKSIIYENLVFIKNDFSRKHFSSELQKQFKIMAIQDLENVTHINANVETTESEPLLETVHDCSIYIVEFLTSVCTLQFSVEEMNKIITSLTILCQLSSETREIWTSDFNTFVSKETGLAASYNVRDQANEFFTSLPNPQLSLIFKVVSNDIEHSTCNYSTLESLLYLLQCILLNDDEITGENIDQSLQILIKTLENILVSQEIPELILARAILTIPRVLDKFIDALPDIKPLTSAFLAKSLNLALKSDKELIKSATLIAFTYYCYFAELDSVLGPEVCSETQEKVIRIINQVSSDAEEDTNGALMEVLSQVISYNPKEPHSRKEILQAEFHLVFTISSEDPANVQVVVQSQECLEKLLDNINMDNYKNYIELCLPSFINVLDSNNANNYRYSPLLSLVLEFITVFLKKKPNDGFLPDEINQYLFEPLAKVLAFSTEDETLQLATEAFSYLIFNTDTRAMEPRLMDIMKVLERLLSLEVSDSAAMNVGPLVVAIFTRFSKEIQPLIGRILEAVVVRLIKTQNISTEQNLLSVLCFLTCNDPKQTVDFLSSFQIDNTDALTLVMRKWIEAFEVIRGEKRIKENIVALSNLFFLNDKRLQKVVVNGNLIPYEGDLIITRSMAKKMPDRYVQVPLYTKIIKLFVSELSFQSKQPNPEQLITSDIKQEVVNANKDDDNDDWEDVDDVLDYDKLKEYIDDDVDEEADDDSDDITGLMDVKESVVQLLVRFFKEVASKDVSGFHCIYETLSDSERKVLSEALL
In experiment [1], B2 returned a stoichiometry N of 1.
